This note sets out measurements from patent US20090130105A1 (Biogen, published 2009).

The target of assay [1] is T1, human IGF-1R on H322M non-small cell lung cancer cells (human, UniProt P08069 31-1367).
T1 construct: Endogenous receptor of the tumor cell line; also called cell surface IGF-1R
The assay can be described thus: flow cytometry on H322M cells. The method, then:
Cell lines were routinely cultured no greater than 20 passages. Flow cyotometric analysis of antibody binding to human cancer cells. Cells were lifted with cell dissociation buffer (Gibco catalog #13151-014), counted, washed and adjusted to 5×10⁶ cells/ml. Cells (2.5×10⁵; 50 uL) were added to each well of a 96-well round bottom plate (Costar #3799). Purified antibodies were tested at a starting concentration of 300 nM with serial half-log dilutions in FACS buffer. FACS buffer used throughout the assay was PBS (without Ca++/Mg++) containing 5% FBS. Samples were incubated on ice for 30 minutes, washed 3× with 200 uL FACS buffer and centrifuged at 1200 rpm for 3 minutes at 4° C. C2B8 (rituximab, IgG1) was used as a negative control. […] Samples were incubated for an additional 30 minutes on ice, shielded from light. Cells were washed as described above and resuspended in 100 μl FACS buffer containing propidium iodide (PI) for dead cell exclusion (BD Pharmingen, catalog# 51-66211E or 556463; use at 1:500 final in FACS buffer). Samples were run in triplicate using the FACSArray flow cytometer (Becton Dickinson) with 5000 live events collected per sample. Data analysis was performed using the GraphPad Prism version 5.0 software (GraphPad Software Inc., 11452 El Camino Real #215, San Diego, Calif. 92130). Results. […]

Assay [2] concerns the target T2, sIGF-1R(1-903) (human, UniProt P08069 31-933).
T2 construct: also called soluble IGF-1R ectodomain
Nature of the assay: ITC, 25 °C, antibody into sIGF-1R(1-903). The method, then:
(§1) Isothermal Titration Calorimetry (ITC). […] The reagents were co-dialyzed against PBS, pH 7.2. The protein solutions were adjusted to the concentrations listed above by dilution using PBS dialysate. […] The protein solutions were prepared as described above for the MAb binding experiments. All ITC experiments were performed on an ITC₂₀₀ microcalorimeter (MicroCal, LLC) at 25° C. […] IGF-1R bispecific antibodies. A four minute equilibration period was used between all injections with an initial delay of 60 seconds. Numerical integration of the data was performed using the ITC data analysis software supplied by MicroCal (Origin). ΔHA° (T) values were calculated based on the difference between the average heat liberated/absorbed during the binding phase of the injections and the average heat of dilution found once the receptor, IGF-1R, was saturated with MAb or BsAb.

Assay [3] concerns the target T2, sIGF-1R(1-903). Nature of the assay: ITC, 25 °C; footnote a: affinity too high for accurate measurement. The procedure:
as §1

In assay [4] the target is T3, human IGF-1R(1-903)-Fc (human, UniProt P08069 31-933).
T3 construct: also called hIGF-1R-Fc; SDWT; not shown: human IgG1 Fc, C-terminal tag
Nature of the assay: IGF-1 blocking ELISA at 320 nM IGF-1 His on biotinylated hIGF-1R-Fc. The procedure:
The dilutions were added to the plates in duplicate at 100 μL/well and the plates were incubated at RT for 1 hour. The plates were then washed four times with 200 μL/well PBST. An HRP-conjugated anti-Histag antibody (Penta-His HRP Conjugate, QIAGEN, Cat. No. 1014992) was diluted 1:1000 in PBST and added to plates at 100 μL/well, and the plates were incubated at RT for one hour. The plates were then washed four times with 200 μL/well PBST. SureBlue Reserve TMB Microwell Peroxidase Substrate (KPL, Cat. No. 53-00-01) was added to plates at 100 μL/well followed by 1% phosphoric acid at 100 μL/well once the desired reaction was observed. The absorbance of each well was determined at 450 nm, and the results were normalized and plotted against the log of antibody concentration.
Ligand Blocking Properties.

For assay [5], the target named is T3, human IGF-1R(1-903)-Fc. Nature of the assay: ELISA, blocking of IGF-2 His (640 nM by the table head) on biotinylated hIGF-1R-Fc.
For assay [6], the target named is T4, hIGF-1R-Fc mutant SD007 (N237G) (human, UniProt P08069 31-933).
T4 construct: not shown: human IgG1 Fc, C-terminal tag
The assay can be described thus: SPR: receptor-Fc captured on M13-C06 chip, then M13-C06 Fab; relative to wild type. The method, then: (§2) After, completion of the receptor-Fc loading step, flow rates were elevated to 5 μl/min. […] At the end of each sensorgram, the flow rate was elevated to 30 μl/min and the chip surface was regenerated by 2×10 μL injections of 0.1 M glycine, pH 2.

Assay [7] deals with T5, hIGF-1R-Fc mutant SD009 (E264K) (human, UniProt P08069 31-933).
T5 construct: not shown: human IgG1 Fc, C-terminal tag
Described as above. The procedure: as §2

Assay [8] addresses T6, hIGF-1R-Fc mutant SD012 (E303G) (human, UniProt P08069 31-933).
T6 construct: not shown: human IgG1 Fc, C-terminal tag
The assay is described as above. The method, then: as §2

T2 sequence (P08069 31-933): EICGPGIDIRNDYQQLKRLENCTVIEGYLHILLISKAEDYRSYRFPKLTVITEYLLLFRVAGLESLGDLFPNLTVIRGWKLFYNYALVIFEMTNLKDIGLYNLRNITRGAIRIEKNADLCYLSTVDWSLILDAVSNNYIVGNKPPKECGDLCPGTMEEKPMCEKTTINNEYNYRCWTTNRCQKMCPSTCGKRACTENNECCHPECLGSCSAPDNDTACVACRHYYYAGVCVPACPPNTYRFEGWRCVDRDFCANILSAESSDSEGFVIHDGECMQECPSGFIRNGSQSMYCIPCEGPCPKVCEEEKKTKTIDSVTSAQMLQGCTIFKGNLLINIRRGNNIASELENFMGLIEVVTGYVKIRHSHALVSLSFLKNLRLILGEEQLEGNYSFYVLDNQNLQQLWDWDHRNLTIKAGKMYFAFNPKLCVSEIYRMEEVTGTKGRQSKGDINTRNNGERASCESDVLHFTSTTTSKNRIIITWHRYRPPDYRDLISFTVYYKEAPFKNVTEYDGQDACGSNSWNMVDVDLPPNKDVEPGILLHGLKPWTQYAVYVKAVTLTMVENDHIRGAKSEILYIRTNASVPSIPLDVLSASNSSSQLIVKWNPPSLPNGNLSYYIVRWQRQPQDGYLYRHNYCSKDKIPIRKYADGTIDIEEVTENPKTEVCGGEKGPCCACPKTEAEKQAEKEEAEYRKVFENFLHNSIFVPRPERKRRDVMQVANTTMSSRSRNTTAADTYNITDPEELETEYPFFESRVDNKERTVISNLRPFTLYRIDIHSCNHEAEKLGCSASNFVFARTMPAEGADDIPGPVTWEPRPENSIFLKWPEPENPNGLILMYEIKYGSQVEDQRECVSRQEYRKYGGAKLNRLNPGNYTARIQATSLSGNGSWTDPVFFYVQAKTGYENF
T3 sequence (P08069 31-933): as above
T4 sequence (P08069 31-933 N267G): as the sequence (P08069 31-933) above, with N237G counted along it
T6 sequence (P08069 31-933 E333G): as the sequence (P08069 31-933) above, with E303G counted along it
T1 sequence (P08069 31-1367, stated change not applied): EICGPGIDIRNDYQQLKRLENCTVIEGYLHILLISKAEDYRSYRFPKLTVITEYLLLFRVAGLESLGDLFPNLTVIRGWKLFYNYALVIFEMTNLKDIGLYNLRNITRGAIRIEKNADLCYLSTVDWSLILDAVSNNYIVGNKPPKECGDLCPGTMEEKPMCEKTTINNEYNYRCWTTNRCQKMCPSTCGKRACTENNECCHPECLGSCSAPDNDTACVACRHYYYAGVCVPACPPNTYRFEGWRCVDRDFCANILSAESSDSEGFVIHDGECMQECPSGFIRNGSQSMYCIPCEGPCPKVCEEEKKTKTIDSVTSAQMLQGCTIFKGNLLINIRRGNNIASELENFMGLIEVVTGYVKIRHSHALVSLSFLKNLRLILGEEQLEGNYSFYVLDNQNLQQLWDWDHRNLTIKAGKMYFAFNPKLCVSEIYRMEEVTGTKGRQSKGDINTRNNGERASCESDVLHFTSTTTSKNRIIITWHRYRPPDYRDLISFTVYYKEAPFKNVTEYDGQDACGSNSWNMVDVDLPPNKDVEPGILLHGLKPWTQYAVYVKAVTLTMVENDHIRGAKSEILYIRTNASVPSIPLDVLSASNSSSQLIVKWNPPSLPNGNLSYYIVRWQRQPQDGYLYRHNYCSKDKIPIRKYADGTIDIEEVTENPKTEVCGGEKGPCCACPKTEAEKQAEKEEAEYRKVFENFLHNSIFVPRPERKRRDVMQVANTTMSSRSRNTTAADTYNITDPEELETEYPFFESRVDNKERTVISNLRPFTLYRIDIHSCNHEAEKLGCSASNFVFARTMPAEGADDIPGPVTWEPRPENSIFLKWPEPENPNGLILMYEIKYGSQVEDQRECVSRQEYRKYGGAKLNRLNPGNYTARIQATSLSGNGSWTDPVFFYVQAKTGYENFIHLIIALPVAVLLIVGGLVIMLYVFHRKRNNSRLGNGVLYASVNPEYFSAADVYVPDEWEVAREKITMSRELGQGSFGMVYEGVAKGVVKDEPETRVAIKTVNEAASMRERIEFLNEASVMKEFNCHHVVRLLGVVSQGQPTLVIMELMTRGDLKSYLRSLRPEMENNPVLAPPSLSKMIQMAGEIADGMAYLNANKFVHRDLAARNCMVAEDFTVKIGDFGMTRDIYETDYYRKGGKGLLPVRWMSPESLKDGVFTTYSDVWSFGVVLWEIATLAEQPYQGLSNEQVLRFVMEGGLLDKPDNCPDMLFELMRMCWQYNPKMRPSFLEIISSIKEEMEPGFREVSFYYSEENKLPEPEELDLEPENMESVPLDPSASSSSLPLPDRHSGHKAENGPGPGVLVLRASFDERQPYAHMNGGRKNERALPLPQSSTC
T5 sequence (P08069 31-933 E294K): as the sequence (P08069 31-933) above, with E264K counted along it

B1: M13-C06 antibody (antibody, V domains shown)
VH: EVQLLESGGGLVQPGGSLRLSCAASGFTFSIYRMQWVRQAPGKGLEWVSGISPSGGTTWYADSVKGRFTISRDNSKNTLYLQMNSLRAEDTAVYYCARWSGGSGYAFDIWGQGTMVTVSS
VL: DIQMTQSPLSLSASVGDRVTITCQASRDIRNYLNWYQQKPGKAPKLLIYDASSLQTGVPSRFGGSGSGTDFSFTIGSLQPEDIATYYCQQFDSLPHTFGQGTKLEIK
notes: Fully human full-length antibody (ATCC PTA-7444); also called M13.C06.G4.P.agly; M13-C06.G4P.agly
As to B1, the EC50 in assay [1] was less than 1 nM. In addition, the “ΔH°” value in the assay with sIGF-1R(1-903) [2] is -91.6 kJ/mol. For the same molecule, in the assay with sIGF-1R(1-903) [3], the “-TΔS” value came out at 44.4 kJ/mol, the Kd was no more than 5 nM and the ΔG was -47.3 kJ/mol. Moreover, in the assay with human IGF-1R(1-903)-Fc [4], the “IC50 (read off the curve)” value is roughly 1 nM. This molecule had a concentration for half-maximal inhibition (IC50) with human IGF-1R(1-903)-Fc [5] of 1.9 nM.

B2: M13-C06 Fab (Fab, V domains shown)
VH: EVQLLESGGGLVQPGGSLRLSCAASGFTFSIYRMQWVRQAPGKGLEWVSGISPSGGTTWYADSVKGRFTISRDNSKNTLYLQMNSLRAEDTAVYYCARWSGGSGYAFDIWGQGTMVTVSS
VL: DIQMTQSPLSLSASVGDRVTITCQASRDIRNYLNWYQQKPGKAPKLLIYDASSLQTGVPSRFGGSGSGTDFSFTIGSLQPEDIATYYCQQFDSLPHTFGQGTKLEIK
notes: Fab made by enzymatic digestion of the IgG
Take B2: the “Biacore Relative RUmax” value in assay [6] came to 1.3; in assay [7] it was 0.6; in assay [8], 0.3.
